The source of these data is PMC5605572, “Phosphorylation of Suppressor of Hairless impedes its DNA-binding activity”.

What all share (details): protein: ivt; label: radiolabelled (EMSA); 5' overhang 4 nt on each strand
Background: A gel shift assay detects complexes by their altered migration in electrophoresis.

For one series, the target named is Su(H) R266H (Drosophila melanogaster, UniProt P28159 1-594, R266H). Description: EMSA; EMSA: 10 mM Tris-HCl pH 7.5, 50 mM NaCl, 1 mM EDTA, 0.0275 ug/ul salmon sperm DNA; ITC: 50 mM sodium phosphate pH 6.5, 150 mM NaCl, 10 C, 10 uM Su(H) in cell, 100 uM DNA in syringe.
The target of a further series is Su(H) wt (Drosophila melanogaster, UniProt P28159 1-594). Description: EMSA; self-competition with unlabelled oligo; EMSA: 10 mM Tris-HCl pH 7.5, 50 mM NaCl, 1 mM EDTA, 0.0275 ug/ul salmon sperm DNA; ITC: 50 mM sodium phosphate pH 6.5, 150 mM NaCl, 10 C, 10 uM Su(H) in cell, 100 uM DNA in syringe.
The next series deals with Su(H) S269A (Drosophila melanogaster, UniProt P28159 1-594, S269A). Description: EMSA; no obvious difference from wt; self-competition with unlabelled oligo; EMSA: 10 mM Tris-HCl pH 7.5, 50 mM NaCl, 1 mM EDTA, 0.0275 ug/ul salmon sperm DNA; ITC: 50 mM sodium phosphate pH 6.5, 150 mM NaCl, 10 C, 10 uM Su(H) in cell, 100 uM DNA in syringe.
Chain of Su(H) S269A (P28159 whole entry S269A): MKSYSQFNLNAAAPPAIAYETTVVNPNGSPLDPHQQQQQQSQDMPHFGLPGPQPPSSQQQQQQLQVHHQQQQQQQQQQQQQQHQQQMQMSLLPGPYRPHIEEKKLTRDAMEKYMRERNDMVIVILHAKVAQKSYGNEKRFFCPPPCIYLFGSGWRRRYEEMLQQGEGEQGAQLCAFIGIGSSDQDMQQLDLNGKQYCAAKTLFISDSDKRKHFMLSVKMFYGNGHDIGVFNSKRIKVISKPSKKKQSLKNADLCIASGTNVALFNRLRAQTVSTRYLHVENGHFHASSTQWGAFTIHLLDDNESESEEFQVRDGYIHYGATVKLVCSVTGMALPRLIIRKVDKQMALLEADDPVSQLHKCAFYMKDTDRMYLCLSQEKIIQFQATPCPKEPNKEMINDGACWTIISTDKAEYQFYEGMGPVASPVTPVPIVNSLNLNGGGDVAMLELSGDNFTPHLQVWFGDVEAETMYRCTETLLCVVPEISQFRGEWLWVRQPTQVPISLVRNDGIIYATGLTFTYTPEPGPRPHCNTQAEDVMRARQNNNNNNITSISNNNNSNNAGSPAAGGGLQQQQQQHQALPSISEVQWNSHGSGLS

Chain of Su(H) wt (P28159 whole entry): as the sequence (P28159 whole entry S269A) above, with A269S counted along it
Chain of Su(H) R266H (P28159 whole entry R266H): as the sequence (P28159 whole entry S269A) above, with R266H, A269S counted along it

B1: E(spl)m8-S1 (dsDNA)
DNA 1: TTGGGTGGCTCGTGGCGTGGGAACCGAGCTGAAAG
DNA 2: GGTTCTTTCAGCTCGGTTCCCACGCCACGAGCCAC
Take B1: the binding result is recorded as “no binding” with Su(H) R266H, “binds” with Su(H) wt and “binds” with Su(H) S269A.
